The values that follow come from publication PMC12802955.

The target of this assay is H234A mutant of SARS-CoV-2 nsp15 with an N-terminal Strep-Tag II (SARS-CoV-2). Description: cryo-EM structure.

One may read the stoichiometry N as the number of molecules, sites or subunits per partner or assembly. Regarding “H234A mutant of SARS-CoV-2 nsp15 with an N-terminal Strep-Tag II (enzyme)”, the stoichiometry N turned out to be 6.
